Experimental findings from patent CN112574297A are described below.

The experiment deals with H7N9病毒的神经氨酸酶(NA) (avian influenza virus H7N9). Briefly: cell-based or functional assay.

B1: 抗禽流感H7N9神经氨酸酶抗原的单克隆抗体D3 (antibody, V domains shown)
VH: IQVKLQESGPELVKPGASVKISCKASGYSFTGYYMHWVKQSHVKSLQWIGRINPYNGATSYNQNFKDKASLTVDKSSSTAYMELHSLTSEDSAVYYCARSGNYAMDYWGQGTTVTVSS
VL: DIELTQSPASLAVSLGQRATISYRASKSVSTSGYSYMHWNQQKPGQPPRLLIYLVSNLESGVPARFSGSGSGTDFTLNIHPVEEEDAATYYCQHIRELTRSEGGPSSRSN
With B1, the NA活性抑制IC50 (酶联凝集素法 ELLA) was found to be 5.22 µg/mL.
